For orientation: EC50 means the concentration needed to bring the measured effect to its halfway point. By Kd is commonly meant the free concentration of one partner at which half of the binding sites on the other are occupied at equilibrium, for simple one-to-one binding.

The target of one assay is human PD-1-mFc-biotin (human, UniProt Q15116 25-170, limits assumed, biotin label, site not stated). Nature of the assay: competitive ELISA, blocking of PD-1-mFc-biotin binding to coated PD-L1-mFc. As for the experimental part:
After incubation, the microplate was blocked with a PBS solution containing 1% BSA at 37° C. for 2 h. […] The antibody was serially diluted to 7 concentrations in a gradient ratio of 1:3 on a dilution plate with 10 μg/mL as the starting concentration, and a blank control was set. […] Then the mixture after reaction was added to the coated microplate, and the microplate was incubated for at 37° C. for 30 min. After incubation, the plate was washed three times with PBST and dried. SA-HRP (KPL, 14-30-00) working solution was added, and the plate was incubated at 37° C. for 30 min. After incubation, the plate was washed four times and patted dry. Then TMB (Neogen, 308177) was added in the dark for chromogenesis for 5 min, and a stop solution was added to terminate chromogenic reaction. Then the microplate was put into a microplate reader immediately, and the OD value of each well in the microplate was read at 450 nm. The data were analyzed and processed by SoftMax Pro 6.2.1.
Background: In an ELISA, binding on a coated surface is turned into a signal by an enzyme label.

The target in assay [1] is T1, PD-1-mFc (human, UniProt Q15116 25-170, limits assumed).
T1 construct: also called human PD-1-mFc
T1 sequence (Q15116 other isoform, or with tags, fused parts or gaps limits assumed): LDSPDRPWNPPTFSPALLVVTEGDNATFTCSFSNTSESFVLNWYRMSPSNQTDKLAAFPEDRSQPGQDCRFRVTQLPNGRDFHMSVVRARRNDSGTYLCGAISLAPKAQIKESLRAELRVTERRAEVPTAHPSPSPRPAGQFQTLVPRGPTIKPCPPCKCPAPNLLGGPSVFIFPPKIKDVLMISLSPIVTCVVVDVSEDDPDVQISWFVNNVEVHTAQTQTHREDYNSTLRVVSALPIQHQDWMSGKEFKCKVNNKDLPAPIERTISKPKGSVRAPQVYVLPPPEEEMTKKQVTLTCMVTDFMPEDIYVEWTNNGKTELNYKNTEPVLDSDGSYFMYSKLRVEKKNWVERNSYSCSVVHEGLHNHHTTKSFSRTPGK
As to the kind of experiment: BLI (Fortebio), PD1-mFc on AMC sensor, antibody 0.62-50 nM, 30 C. As for the experimental part:
The sample dilution buffer was PBS (0.02% Tween-20, 0.1% BSA, pH 7.4). […] The data were analyzed by 1:1 model fitting to obtain affinity constants.
(In general: In BLI a coated tip is dipped into the sample, and binding shifts an interference pattern.)

Assay [2] deals with T1, PD-1-mFc. Nature of the assay: ELISA, PD-1-mFc coated. As for the experimental part: Then the microplate coated with antigens was washed once with PBST, and then blocked with a PBS solution containing 1% BSA as blocking solution at 37° C. for 2 h. After blocking, the microplate was washed 3 times with PBST. The microplate containing the test antibodies was incubated at 37° C. for 30 min, and then washed 3 times with PBST. […] The microplate was put into a microplate reader immediately, and the OD value of each well in the microplate was read at 450 nm. The data were analyzed and processed by SoftMax Pro 6.2.1.

Sequence of human PD-1-mFc-biotin (Q15116 other isoform, or with tags, fused parts or gaps limits assumed): as above

B1: 14C12H1L1(hG1TM) (antibody, human IgG1, kappa)
heavy: not shown
light: DIQMTQSPSSMSASVGDRVTFTCRASQDINTYLSWFQQKPGKSPKTLIYRANRLVSGVPSRFSGSGSGQDYTLTISSLQPEDMATYYCLQYDEFPLTFGAGTKLELKRTVAAPSVFIFPPSDEQLKSGTASVVCLLNNFYPREAKVQWKVDNALQSGNSQESVTEQDSKDSTYSLSSTLTLSKADYEKHKVYACEVTHQGLSSPVTKSFNRGEC
notes: Humanized anti-PD-1 IgG1 with L234A/L235A/G237A
As for B1, the EC50 in the assay with human PD-1-mFc-biotin turned out to be 2.23 nM; in the assay with PD-1-mFc [2], 0.031 nM. In the assay with PD-1-mFc [1], this molecule came in with a Kd of 0.0445 nM.

The values above are taken from patent publication US20230151111A1 (AKESO BIOPHARMA, published 2023).
